Data: PMC2735845

What was measured:
[1] = molecular target: E. coli SSB-mixed (E. coli) (UniProt P0AGE0)
E. coli SSB113 (E. coli) = E. coli SSB113 (E. coli) (UniProt P0AGE0)
[2] = molecular target: E. coli SSBΔC1 (SSB lacking its C-terminal-most residue) (E. coli) (UniProt P0AGE0)

Fold stimulation of RecQ helicase activity by SSB-mixed [1]: 0.7 fold
Fold stimulation of RecQ helicase activity by SSB113 (E. coli SSB113 (E. coli)): 0.9 fold
Fold stimulation of RecQ helicase activity by SSBΔC1 [2]: 0.6 fold
Substance: E. coli RecQ (wild type, full-length, hexahistidine-tagged) (from UniProt P15043 1-609) (enzyme)
